According to patent US20250213704A1, “METHOD OF TREATING A CANCER WITH A MULTIVALENT PEPTIDE CONJUGATE” (Valitor, Inc, priority 2022, published 2025):

Columns and labels:
[1] = biological target: T1, Human VEGF 165 (human, UniProt P15692-4 27-191, Avi tag (as printed under Tags); the tag's sequence and place are not given); assay: BLI (Gator), Avi-tagged human VEGF 165 on the probe, conjugate as analyte, 1:1 global fit; 90.5 kDa CMC, valency 9, 48.41 percent unconjugated peptide
T1 construct: Bought reagent loaded on the BLI probes as ligand; VEGF165 is one isoform of it; also called BLI ligand, Avi tag, R&D Systems AVI-293-050
T1 sequence (P15692 other isoform, or with tags, fused parts or gaps limits assumed): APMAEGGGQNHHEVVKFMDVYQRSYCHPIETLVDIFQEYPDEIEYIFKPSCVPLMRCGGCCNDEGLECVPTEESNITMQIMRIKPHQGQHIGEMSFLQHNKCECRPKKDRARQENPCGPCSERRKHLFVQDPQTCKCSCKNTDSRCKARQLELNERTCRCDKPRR
Procedure: (§1) Either one or two probes per sample (one for kinetic assay and one for ligand free control if used) were equilibrated in 250 μL BLI buffer (PBS pH 7.4, 0.2% Tween and 0.2% BSA filtered at 0.2 μm) for at minimum 10 min in a Gator Bio Max plate. Ligands were diluted to a fixed concentration of 25-100 nM based on performance in pilot reactions in BLI buffer. Analytes were prepared at the top concentration determined in pilot reactions in BLI buffer and serially diluted 1:3 two to five more times using BLI buffer (Table 3). Black flat-bottom non-coated 96 well plates (Greiner Bio One Cat #655209 or similar) were loaded column-wise with 200 μL of ligand, analyte dilutions and one column of BLI buffer for each column of ligand and analyte. One well in each column of analyte was BLI buffer to be used as a blank for reference subtraction. The sample plate was placed in the Gator on a tilted platform set to 25° C. […] Next, the kinetic reads were started using the step parameters. If a ligand-free control was conducted, when kinetic reads were complete with ligand-loaded probes, the ligand free control was run using new probes that were not loaded with the ligand. The same kinetic assay timing and same sample wells were used that were analyzed with ligand loaded probes.
(§2) When kinetic assay was complete, data was analyzed using the Gator software. […]

[2] = biological target: T1, Human VEGF 165; assay: BLI (Gator), Avi-tagged human VEGF 165 on the probe, conjugate as analyte, 1:1 global fit; 250 kDa CMC, valency 21, 44.37 percent unconjugated peptide
Procedure: as §1, §2

[3] = test system: SK-MEL-28 melanoma tumors; assay: Intratumoral pharmacokinetics, in vivo imaging of Sulfo-Cy7 tagged protein after IT injection, tumor type 1; parameters: species or system athymic nude mice
Procedure: FIG. 2A-2C show results of intra-tumoral administration in xenografts in mice. […] The intra-tumoral half-lives were calculated using exponential decay fits of region of interest (ROI) radiant efficiency of infrared-tagged treatment peptides over 168 hours. […] The intra-tumoral half-lives were calculated using exponential decay fits of ROI radiant efficiency of infrared-tagged treatment peptides over 264 hours.
Mouse tumor models for evaluating the clearance rate of proteins from solid tumors were used to measure the intratumoral (IT) half-life of MVPs to maximize the parameters for tumor retention. Antibodies tagged using the amine-reactive Sulfo-Cy7 NHS ester (Broadpharm Cat #BP-22541) near-infrared fluorophore by the following method were used. This method was conducted under aseptic conditions. First, the dye was dissolved DMSO at 10 mg/mL concentration. Then, the protein at 5.0-10.0 mg/mL concentration was mixed with 0.1 M sodium bicarbonate at a 3:2 vol:vol ratio. Lastly, the fluorophore was added at a 1:2 protein:fluorophore molar ratio, mixed well, and incubated at room temperature for one hour on a neutator protected from the light by covering with foil. The NHS esters were quenched by adding 1.5 M Tris buffer pH 8.5 at 10% of the reaction volume and mixed on a neutator for another 10 minutes. The tagged protein was purified away from the unreacted fluorophore using a NAP-10 desalting column (illustra Cat #17-0854-01) that was equilibrated with PBS pH 7.0+0.01% Tween-20 according to the manufacturer's directions. The protein concentration and degree of Cy7 labeling was determined by the absorbance at 280 and 750 nm. […]
Tumors were established by injecting 3×10^6 SK-MEL-28 cells mixed 1:1 with Matrigel (Corning Cat #354234) in a 0.1 mL volume subcutaneously into the right flank of 8 week old athymic nude mice (Table 6). The tumor size was monitored until it reached a size of […]. […] When the study concluded, the half-life of each treatment was determined following injection using exponential decay calculations for optical in vivo imaging (Table 7).

[4] = test system: MDA-MB-231 breast cancer tumors; parameters: species or system nude mice; settings: mouse, in vivo

B1: Conjugate 114: Anti-VEGF VHH (SEQ ID NO: 8) conjugated to 90.5 kDa CMC, valency 9 (other)
VHH: MQVQLVESGGGLVQPGGSLRLSCAASGFAYSTYSMGWFRQAPGKEREAVATINSGTFRLWYTDSVKGRFTISRDNSKNTLYLQMNSLRPEDTAVYYCAARAWSPYSSTVDAGDFRYWGQGTLVTVSSAEAAAKEAAAKEAAAKAGC
modifications: C-terminal Cys thiol linked through a hydrazide-PEG2-maleimide linker to 90.5 kDa carboxymethyl cellulose
notes: Multivalent peptide-polymer conjugate; valency 9 is the mean molar ratio of peptide to polymer; also called anti-VEGF MVP
- Kd [1]: 0.966 nM

B2: Conjugate 115: Anti-VEGF VHH (SEQ ID NO: 8) conjugated to 250 kDa CMC, valency 21 (other)
VHH: B1 VHH
modifications: C-terminal Cys thiol linked through a hydrazide-PEG2-maleimide linker to 250 kDa carboxymethyl cellulose
notes: Multivalent peptide-polymer conjugate; valency 21 is the mean molar ratio of peptide to polymer; also called anti-VEGF MVP
- Kd [2]: 0.583 nM

B3: Conjugate 110: Anti-VEGF DARPin (SEQ ID NO: 1) conjugated to 700 kDa CMC, MP2H linker, valency 20 (conjugate)
chain: SNAGSDLDKKLLEAARAGQDDEVRILMANGADVNARDSTGWTPLHLAAPWGHPEIVEVLLKNGADVNAADFQGWTPLHLAAAVGHLEIVEVLLKYGADVNAQDKFGKTAFDISIDNGNEDLAEILQKAAGGGSGGGSC
modifications: conjugated to 700 kDa CMC via MP2H linker; aVEGF_Gly_Cys DARPin
- IT half-life compared with unconjugated anti-VEGF DARPin and other conjugate (in words) ([3]; mouse, in vivo): longer than that of the unconjugated anti-VEGF DARPin or the peptide conjugated to a 90 kDa CMC
- Intratumoral t1/2 ([3]; mouse, in vivo): 48.7 ± 24.7 h

B4: Unconjugated: Unconjugated Sulfo-Cy7 tagged anti-VEGF DARPin (SEQ ID NO: 1), comparator for the conjugates (protein)
chain: B3 chain
modifications: Sulfo-Cy7 label; aVEGF_Gly_Cys DARPin
- Intratumoral t1/2 [4]: 15.1 ± 9.8 h

B5: Conjugate 109: Anti-VEGF DARPin (SEQ ID NO: 1) conjugated to 830 kDa HyA, MP2H linker, valency 34 (conjugate)
chain: B3 chain
modifications: conjugated to 830 kDa HyA via MP2H linker; aVEGF_Gly_Cys DARPin
- Intratumoral t1/2 [4]: 20.5 ± 7.0 h

B6: Conjugate 101: Anti-VEGF DARPin (SEQ ID NO: 1) conjugated to 700 kDa CMC, MP2H linker, valency 13 (conjugate)
chain: B3 chain
modifications: conjugated to 700 kDa CMC via MP2H linker; aVEGF_Gly_Cys DARPin
- IT half-life compared with unconjugated anti-VEGF DARPin and other conjugate (in words) [4]: longer than that of the unconjugated anti-VEGF DARPin or the peptide conjugated to a 830 kDa hyaluronic acid (HyA)
- Intratumoral t1/2 [4]: 101.2 ± 34.9 h

B7: Conjugate 111: Anti-VEGF DARPin (SEQ ID NO: 1) conjugated to 90 kDa CMC, EMCH linker, valency 34 (conjugate)
chain: B3 chain
modifications: 90 kDa CMC via EMCH linker; aVEGF_Gly_Cys DARPin
- Intratumoral t1/2 ([3]; Tumor type 1 (SK-MEL-28 melanoma xenograft), 40 μL IT injection, exponential decay fit of ROI radiant efficiency over 168 hours): 18.0 ± 3.4 h
